Measured values reported in patent US20240117030A1 (Pfizer, published 2024).
Where two headings read alike, the source gives them in different places.

What was measured:
[1] = target: T1, recombinant human IL-23 (human, UniProt Q9NPF7 20-189; P29460 23-328); test: cell-based or functional assay
T1 sequence (looked up) 1: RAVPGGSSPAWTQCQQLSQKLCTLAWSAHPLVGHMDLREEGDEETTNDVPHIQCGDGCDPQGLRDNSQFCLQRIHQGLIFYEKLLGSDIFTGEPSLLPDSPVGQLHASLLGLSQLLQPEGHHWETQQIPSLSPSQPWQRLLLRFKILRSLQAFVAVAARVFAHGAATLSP
T1 sequence (looked up) 2: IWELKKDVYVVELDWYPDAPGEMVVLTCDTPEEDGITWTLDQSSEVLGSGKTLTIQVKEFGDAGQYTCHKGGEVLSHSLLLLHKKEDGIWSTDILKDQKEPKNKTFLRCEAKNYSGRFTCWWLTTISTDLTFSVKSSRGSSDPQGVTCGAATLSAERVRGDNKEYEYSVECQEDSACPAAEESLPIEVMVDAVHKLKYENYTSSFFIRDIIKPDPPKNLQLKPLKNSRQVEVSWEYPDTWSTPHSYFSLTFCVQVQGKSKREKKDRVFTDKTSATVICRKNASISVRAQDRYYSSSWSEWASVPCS

[2] = target: T2, recombinant human IL-12 (human, UniProt P29459 23-219; P29460 23-328); test: cell-based or functional assay
T2 sequence (looked up) 1: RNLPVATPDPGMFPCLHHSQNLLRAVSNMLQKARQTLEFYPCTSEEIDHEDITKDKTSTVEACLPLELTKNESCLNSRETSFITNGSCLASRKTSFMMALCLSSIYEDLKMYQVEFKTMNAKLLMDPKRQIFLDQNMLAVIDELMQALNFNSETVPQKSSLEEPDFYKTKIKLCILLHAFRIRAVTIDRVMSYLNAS
T2 sequence (looked up) 2: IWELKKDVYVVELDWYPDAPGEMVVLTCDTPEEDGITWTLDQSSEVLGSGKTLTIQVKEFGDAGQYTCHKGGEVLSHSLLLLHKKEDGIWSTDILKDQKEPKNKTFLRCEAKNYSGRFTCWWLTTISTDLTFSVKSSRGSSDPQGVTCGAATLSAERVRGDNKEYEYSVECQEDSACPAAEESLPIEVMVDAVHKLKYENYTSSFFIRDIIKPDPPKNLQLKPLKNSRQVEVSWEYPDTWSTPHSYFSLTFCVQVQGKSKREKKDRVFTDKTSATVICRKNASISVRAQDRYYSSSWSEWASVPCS

[3] = target: T1, recombinant human IL-23; test: cell-based or functional assay; remark: listed apart in the source
[4] = target: T2, recombinant human IL-12; test: cell-based or functional assay; remark: listed apart in the source
[5] = target: T3, recombinant human IL-33 (R&D Systems 3625-IL), reduced with DTT (human, UniProt O95760 112-270, limits assumed); test: cell-based or functional assay
T3 sequence (looked up): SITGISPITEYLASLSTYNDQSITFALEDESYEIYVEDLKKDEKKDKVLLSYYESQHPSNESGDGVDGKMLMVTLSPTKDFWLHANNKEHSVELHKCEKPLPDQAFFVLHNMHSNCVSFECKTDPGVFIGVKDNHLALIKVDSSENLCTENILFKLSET

[6] = target: T4, biotinylated human IL-33 wild-type (WT), reduced with 3 mM DTT (human, UniProt O95760 112-270, limits assumed, biotinylated (site not stated)); test: KinExA solution affinity, fixed antigen format, global fit
T4 sequence (looked up): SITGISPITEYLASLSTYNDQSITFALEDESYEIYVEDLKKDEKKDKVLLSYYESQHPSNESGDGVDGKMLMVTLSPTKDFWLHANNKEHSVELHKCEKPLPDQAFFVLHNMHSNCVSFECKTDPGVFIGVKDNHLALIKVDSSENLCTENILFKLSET

[7] = target: T3, recombinant human IL-33 (R&D Systems …); test: cell-based or functional assay; remark: listed apart in the source
[8] = target: T5, IL-33 mm2 (human, UniProt O95760 112-270, limits assumed); test: cell-based or functional assay
T5 sequence (looked up): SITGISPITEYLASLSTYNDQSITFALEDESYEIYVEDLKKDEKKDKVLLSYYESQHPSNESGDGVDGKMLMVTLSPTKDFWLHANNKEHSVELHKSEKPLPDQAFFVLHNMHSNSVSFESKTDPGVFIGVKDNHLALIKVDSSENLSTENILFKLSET

[9] = target: T6, recombinant human IL-33 (human, UniProt O95760 112-270, limits assumed); test: cell-based or functional assay
T6 sequence (looked up): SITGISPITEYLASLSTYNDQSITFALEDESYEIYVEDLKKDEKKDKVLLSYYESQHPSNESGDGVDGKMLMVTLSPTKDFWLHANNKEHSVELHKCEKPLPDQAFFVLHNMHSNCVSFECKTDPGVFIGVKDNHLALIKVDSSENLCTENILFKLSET

B1: p40-0003 (antibody, human IgG1, kappa, V domains shown)
VH: EVQLVQSGAEVKKPGESLKISCKGSGYSFTTYWLGWVRQMPGKGLDWIGIMSPVDSDIRYSPSFQGQVTMSVDKSITTAYLQWNSLKASDTAMYYCARRRPGQGYFDFWGQGTLVTVSS
VL: DIQMTQSPSSLSASVGDRVTITCRASQGISSWLAWYQQKPEKAPKSLIYAASSLQSGVPSRFSGSGSGTDFTLTISSLQPEDFATYYCQQYNIYPYTFGQGTKLEIKR
B1 was tested, and the “IC50 (mean), Kit-225 assay, IL-23 induced phospho-STAT3” value [1] was 0.85 nM, the “IC50 (mean), Whole blood assay, IL-23 induced phospho-STAT3” value [1] was 4.51 nM and the “IC50 (mean), Kit-225 assay, IL-12 induced phospho-STAT4” value [2] was 0.155 nM. For the same binder, the “IC50 (mean), Whole blood assay, IL-12 induced phospho-STAT4” value [2] was 0.262 nM, the “IC50 (mean), Kit-225 assay, IL-23 induced phospho-STAT3” value [3] was 0.85 nM and the “IC50 (mean), Whole blood assay, IL-23 induced phospho-STAT3” value [3] was 4.51 nM. For the same binder, the “IC50 (mean), Kit-225 assay, IL-12 induced phospho-STAT4” value [4] was 0.155 nM and the “IC50 (mean), Whole blood assay, IL-12 induced phospho-STAT4” value [4] was 0.262 nM.

B2: IL33-0726 (antibody, human IgG1, kappa, V domains shown)
VH: EVQLVESGGGLVQPGGSLRLSCAASGFTFSSYWMYWVRQAPGKGLEWVAAITPNAGEDYYPESVKGRFTISRDNAKNSLYLQMNSLRAEDTAVYYCARGQYYYTKYSLGYWGQGTLVTVSS
VL: DIQMTQSPSSLSASVGDRVTITCRASQPIHNHLDWYQQKPGKAPKLLIYFGKNLQEGVPSRFSGSGSGTDFTLTISSLQPEDFATYYCFQYKKGWSFGGGTKVEIKR
notes: also called IL33-0726 IgG; IL13433-0726
In the case of B2, the “IC50 [pM] versus human reduced IL-33 (R&D), Experiment 2 (HEK-Blue SEAP)” value [5] is reported as 6 pM, the Kd [6] is reported as < 0.000237 nM and the “IC50 [nM] versus reduced human IL-33 (R&D), IC50 (AVE)” value [7] is reported as 0.008 nM.

B3: IL33-158LS (antibody, V domains shown)
VH: EVQLVESGGGLVQPGGSLRLSCAASGFTFSSYWMYWVRQAPGKGLEWVAAITPNAGEDYYPESVKGRFTISRDNAKNSLYLQMNSLRAEDTAVYYCARGHYYYTSYSLGYWGQGTLVTVSS
VL: DIQMTQSPSSLSASVGDRVTITCKASQNINKHLDWYQQKPGKAPKLLIYFTNNLQTGVPSRFSGSGSGTDFTLTISSLQPEDFATYYCFQYNQGWTFGGGTKVEIK
In the case of B3, the “IC50 (mean), IFNg Whole Blood (IL-12 plus IL-33 mm2-Cys)” value [8] is reported as 0.0162 nM and the “IC50 (mean), HEK-Blue IL-33 SEAP” value [9] is reported as 0.0562 nM.
